The results in this text go back to article PMC7041718 (The Journal of Experimental Medicine, 2019).

In this assay the target is 16055 gp120 (HIV-1 clade C clinical isolate 16055). The assay is described as follows: ELISA.

B1: GM7_TH2 mAb (antibody, V domains shown)
VH: QVQLVQSGTEVKQPGASVKVSCKASGYTFTGYGMNWVRQAHGQRLEWMGWINTETGHPTYAQGFKERFTFSMDTSISTAYLQINSLKPEDTAIYYCARFSGLHSVAVFEYWGQGVLVTVSS
VL: SSGLTQEPALSVALGHTVRMTCQGDSLKTYYATWYQQKPGQVPVLVIYDNNYRPSGIPGRFSVSWSGDTNSLTITAAQVEDEADYYCNSWDSSGTHLLFGGGTRLTVL
On to B1, for which the binding result is given as “binds”.
